# Measured values taken from patent publication US20220049236A1.
# Key:
# [1] = target: LPD displayed on the surface of yeast cells (EBY100) (Saccharomyces cerevisiae; human) (UniProt P32781); test: flow cytometry of yeast cells displaying LPD, stained with Atto 633-labelled HSP70; the sample histogram is shifted to the right of the control histogram, whose Median RFU is printed as 26
# [2] = target: Nidogen-1 (human) (UniProt P14543); test: IP from HDF supernatant, LFQ mass spectrometry; ratio against Fc control
# [3] = target: Heat shock 70 kDa protein 6/7 (human) (UniProt P17066); test: as above
# [4] = target: HSP70 (UniProt P0DMV8); test: ELISA, plate coated with HSP70
# [5] = target: HSP70 (UniProt P0DMV8); test: ELISA, plate coated with HSP70, bound protein detected with peroxidase-conjugated anti-human antibody
# [6] = target: Nidogen-1 (human) (UniProt P14543); test: IP from HDF supernatant, LFQ mass spectrometry; ratio against the glycosylation mutant
# [7] = target: Heat shock 70 kDa protein 6/7 (human) (UniProt P17066); test: as above
# Heat shock 70 kDa protein 6/7 (human), sequence (P17066 whole entry): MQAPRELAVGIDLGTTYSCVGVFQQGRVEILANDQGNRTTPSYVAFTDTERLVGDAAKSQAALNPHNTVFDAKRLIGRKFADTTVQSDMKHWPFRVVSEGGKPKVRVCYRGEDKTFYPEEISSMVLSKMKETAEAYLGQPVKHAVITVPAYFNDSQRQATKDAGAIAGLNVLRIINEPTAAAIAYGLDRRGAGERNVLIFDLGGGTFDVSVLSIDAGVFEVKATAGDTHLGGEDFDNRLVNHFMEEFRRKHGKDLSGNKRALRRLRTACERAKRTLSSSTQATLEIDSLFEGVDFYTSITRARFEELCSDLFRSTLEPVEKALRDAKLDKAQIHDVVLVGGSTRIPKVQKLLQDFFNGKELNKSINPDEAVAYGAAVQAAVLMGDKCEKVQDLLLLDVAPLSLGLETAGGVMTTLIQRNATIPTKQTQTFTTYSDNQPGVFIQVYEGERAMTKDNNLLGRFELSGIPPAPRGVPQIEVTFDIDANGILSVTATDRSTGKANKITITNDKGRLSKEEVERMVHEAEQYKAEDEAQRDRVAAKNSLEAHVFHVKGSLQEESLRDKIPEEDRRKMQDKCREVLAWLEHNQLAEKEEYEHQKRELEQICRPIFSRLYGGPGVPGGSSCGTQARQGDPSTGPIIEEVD
# Nidogen-1 (human), sequence (P14543 29-1247 limits assumed): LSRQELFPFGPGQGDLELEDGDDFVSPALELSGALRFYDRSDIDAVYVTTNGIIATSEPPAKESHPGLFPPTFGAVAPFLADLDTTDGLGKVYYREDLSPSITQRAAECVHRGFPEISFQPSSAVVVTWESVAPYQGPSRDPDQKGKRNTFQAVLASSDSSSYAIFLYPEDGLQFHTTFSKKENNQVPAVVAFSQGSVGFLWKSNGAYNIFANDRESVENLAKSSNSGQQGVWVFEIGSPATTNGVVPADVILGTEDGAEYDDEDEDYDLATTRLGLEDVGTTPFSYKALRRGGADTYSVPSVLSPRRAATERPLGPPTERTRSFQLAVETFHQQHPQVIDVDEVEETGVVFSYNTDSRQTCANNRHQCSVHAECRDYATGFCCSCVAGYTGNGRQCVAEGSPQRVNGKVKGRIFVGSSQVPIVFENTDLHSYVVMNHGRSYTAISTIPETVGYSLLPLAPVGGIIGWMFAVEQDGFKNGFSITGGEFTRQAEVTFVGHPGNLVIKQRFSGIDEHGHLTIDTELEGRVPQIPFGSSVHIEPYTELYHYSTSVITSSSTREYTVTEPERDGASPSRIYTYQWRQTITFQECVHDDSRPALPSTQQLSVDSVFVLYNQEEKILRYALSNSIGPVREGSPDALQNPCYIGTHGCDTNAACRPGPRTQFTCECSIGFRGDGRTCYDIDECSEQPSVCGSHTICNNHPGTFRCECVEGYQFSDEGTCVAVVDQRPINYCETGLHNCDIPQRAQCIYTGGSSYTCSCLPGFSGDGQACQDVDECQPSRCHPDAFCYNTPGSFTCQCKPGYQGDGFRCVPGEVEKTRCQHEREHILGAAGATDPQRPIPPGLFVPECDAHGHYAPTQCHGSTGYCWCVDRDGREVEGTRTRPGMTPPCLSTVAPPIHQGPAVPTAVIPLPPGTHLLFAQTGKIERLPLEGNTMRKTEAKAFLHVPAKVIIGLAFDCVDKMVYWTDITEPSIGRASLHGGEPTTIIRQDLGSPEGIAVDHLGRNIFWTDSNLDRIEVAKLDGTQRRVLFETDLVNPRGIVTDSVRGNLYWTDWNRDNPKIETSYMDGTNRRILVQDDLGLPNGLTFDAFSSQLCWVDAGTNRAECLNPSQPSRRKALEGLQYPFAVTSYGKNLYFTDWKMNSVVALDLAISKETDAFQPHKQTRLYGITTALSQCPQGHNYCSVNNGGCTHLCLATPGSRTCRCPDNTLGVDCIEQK
# HSP70, sequence (P0DMV8 whole entry): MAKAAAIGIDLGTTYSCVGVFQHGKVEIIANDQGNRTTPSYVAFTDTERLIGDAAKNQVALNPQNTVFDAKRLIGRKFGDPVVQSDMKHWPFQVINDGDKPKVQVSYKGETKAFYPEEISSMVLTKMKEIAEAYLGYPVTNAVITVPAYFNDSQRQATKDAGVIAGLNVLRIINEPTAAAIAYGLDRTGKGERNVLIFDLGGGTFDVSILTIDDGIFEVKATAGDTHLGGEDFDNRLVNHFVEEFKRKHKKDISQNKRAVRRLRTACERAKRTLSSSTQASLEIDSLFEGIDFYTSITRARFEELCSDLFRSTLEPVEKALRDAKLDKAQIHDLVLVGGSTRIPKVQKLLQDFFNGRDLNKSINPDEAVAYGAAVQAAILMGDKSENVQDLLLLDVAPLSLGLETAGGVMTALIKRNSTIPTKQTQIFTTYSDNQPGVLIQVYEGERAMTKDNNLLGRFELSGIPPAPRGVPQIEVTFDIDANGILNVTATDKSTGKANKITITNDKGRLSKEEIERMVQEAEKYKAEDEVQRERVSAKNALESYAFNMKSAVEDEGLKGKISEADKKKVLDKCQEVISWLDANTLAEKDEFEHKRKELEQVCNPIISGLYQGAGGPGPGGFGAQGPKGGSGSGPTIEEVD
substance,measurement,setting,value
HSP70 (from UniProt P0DMV8 1-641),Median RFU,[1],130 RFU
"Fc-LPD N346, 362, 409Q (from UniProt P28300 22-169) (Fc fusion)","Ratio Fc-LPD-N346, 409, 456Q:Fc",[2],13.7
same,"Ratio Fc-LPD-N346, 409, 456Q:Fc",[3],194
Fc-LPD (lysyl oxidase prodomain fused to Fc antibody fragment) (Fc fusion),EC50,[4],41 nM
same,EC50,[5],41 nM
same,"Ratio Fc-LPD:Fc-LPDN346, 409, 456Q",[6],0.7
same,"Ratio Fc-LPD:Fc-LPDN346, 409, 456Q",[7],0.4
same,Ratio Fc-LPD:Fc,[2],9
same,Ratio Fc-LPD:Fc,[3],78.4
